Patent US20130259876A1 (Regeneron, published 2013)
Positions count from the first letter of the chain named.

B1: H4H2534S (antibody, V domains shown)
VH: EVQLVESGPGLVKPAQTLSLTCTVSGGSINSGGNYWSWIRQHPGKGLEWIGYIYYSGNTYYNPSLKSRVTISVDMSKNQFSLKLRSVTAADTAVYFCARDPRGITGTHHFDCWGQGTLVTVSS
VL: EIVLTQSPGTLSLSPGERATLSCRTSQSVSSRYLAWYQQKPGQAPRLLIYDASSRATGIPDRFSGSGSGTDFTLTISRLEPEDFAVYYCQQFGPSLFTFGPGTKVDIK
B2: H4H2542P (antibody, V domains shown)
VH: EVQLVESGGGLVQPGRSLRLSCAASGFTFDDYAMHWVRQGPGKGLEWVSGISWNGRTMDHADSVKGRFTISRDNAKNSLYLQMNSLRNDDTGVYFCAKEGIPVAGTYFHFYGMDVWGQGTTVTVSS
VL: EIVMTQSPATLSVSPGERVTLSCRASQSIGNYLAWYQQKPGQAPRLLIYGTSTRATGIPARFSGSGSGTEFTLTFSSLQSEDFAVYYCQQYNHWPLTFGGGTKVEIK
B3: H4H2477N (antibody, V domains shown)
VH: QVQLQQWGAGLLKPSETLSLTCAVYGGSFSDYYWSWIRQPPGKGLEWIGEINHSGNTNYNPSLKSRVTISVDTSKNQFSLKLRSVTAADMAVYYCARIQLWLRGYDYYGMDVWGQGTTVTVSS
VL: DIQMTQSPSSLSASVGDRVTITCRASQGIRNDLGWYQQKPGKAPKRLIYAASSLQGGVPSRFSGSGSGTEFSLTISSLQPEDFASYYCLQHNTYPWTFGQGTKVEIK
B4: H4H2490N (antibody, V domains shown)
VH: QVQLVQSGADVKWPGASVKVSCRASGYTFTGYYMHWVRQAPGQGLEWMGWINPNNGGTNYAQKFQGRVTMTRDTSITTVYMELSSLISDDTAVYYCARGEDLELRNYYYYGMDVWGQGTSVTVSS
VL: DIQMTQSPSSLSASVGDRVTITCRASQSISSYLNWYQQKPGKAPKLLIYAASNLQSGVPSRFSGSGFGTDFTLTISSLQSEDFATYYCQQTYSTRTFGRGTKVEIN
B5: H4H2499N (antibody, V domains shown)
VH: QVQLVESGGGLVKPGGSLRLSCAASGFTFSDYYMSWIRQAPGKGLEWVSYISTSGSTIYYPDSVKGRFTISRDNAKNSLNLQMNSLRAEDTAVYYCLLHYYYGMDVWGQGTTVTVSS
VL: EIVLTQSPATLSLSPGERAPLSCRASQSVSSYLAWYQQKPGQPPRLLIYDASNRATGIPARFSGSGSGTDFTLTISSLEPEDFAVYYCQQRSNWPWTFGQGTKVEIK
B6: H4H2562S (antibody, V domains shown)
VH: EVQLVESGGGLVQPGGSLRLSCAASGFTFTNYAMTWVRQAPGKGLEWVSTISGTGVDITYYADSVKGRFTISRDNSKNTLYLQMNSLRAEDTAVYYCAKGGLRWFPFDYWGQGTTVTVSS
VL: not shown
B7: H4H2532P (antibody, V domains shown)
VH: QVQLVQSGTEVKKPGAAVRVSCKASGYTFTDYHMHWVRQAPGQGLEWMGWINPNSGGTNSAQKFQGRVTMTRDTSISTAYMELNGLRSDDTAVYYCARKAGYTSSWFDYWGQGTTVTVSS
VL: not shown
B8: H4H2538P (antibody, V domains shown)
VH: B7 VH with T9A, A17S, R19K, H33Y, M48I, T58S, S60F, N84S, G85R, T115L
VL: DIVMTQSPDSLAVSLGERATINCKSSQSVLYSFNNKNYLSWYQQKPGQPPKLLIYWASTRESGVPDRFSGSGSGTDFTLTISSLQAEDAAVYYCQQYYSMITFGQGTRLEIK
B9: H4H2555P (antibody, V domains shown)
VH: B7 VH with T9A, R19K, Y102F, Y109H
VL: not shown
B10: H4H2559P (antibody, V domains shown)
VH: QVQLVQSGAEVKKPGASVKVSCKASGYTFTDYFLHWVRQAPGQGLEWVGWINPNSGGTNFAQKFQGRVTMTRDTSISTAYMDLSRLRSDDTAVYYCARKAGYTSSWFDYWGQGTLVTVSS
VL: B8 VL with V29I, S40A, P46I, K51M, S83R, A89V, M100S
B11: H4H2526P (antibody, V domains shown)
VH: QVQLVESGGGVVQPGRSLRLSCAASGFTFSRFGMDWVRQAPGKGLEWVAVISYDGKNKLYADSVKGRFTISRDNSKNTLYMQMNSLRAEDTAVYYCAKEGDNWNFVGDSWGQGTLVTVSS
VL: DIQMTQSPSSVSASVGDRVTITCRASQDISARLAWYQQKPGKAPKLLIYAASSLQSGVPSRFSGSGSGTDFTLTISSLEPEDFATYYCQQADSFPYTLGQGTKLEIK
B12: H4H2528P (antibody, V domains shown)
VH: B11 VH with M81L
VL: B11 VL with D28G, D70Y, S77N, E79Q, D92N
B13: H4H2560P (antibody, V domains shown)
VH: B10 VH with D31G, L34I, N54T, F60Y, D82E, L83M, S84N, R85S, S105T, L115T
VL: B8 VL with A12T, F33S, N34K, S40A, K51N, I54V, A89V

Experiments:
[1] = target: T1, scHLA-B27-mmH (engineered HLA-B*27 ectodomain in-line fusion protein) (human (HLA-B*2705, beta-2 …)); assay: SPR (Biacore), 25 C, PBS pH 7.2
T1 construct: also called soluble HLA-B*27 fusion protein

[2] = target: T1, scHLA-B27-mmH (engineered HLA-B*27 …); assay: SPR (Biacore), 25 C, PBS pH 5.75
[3] = target: T1, scHLA-B27-mmH (engineered HLA-B*27 …); assay: SPR (Biacore), mAb captured, 25 C, PBS pH 7.2
[4] = target: T1, scHLA-B27-mmH (engineered HLA-B*27 …); assay: SPR (Biacore), mAb captured, 25 C, PBS pH 5.75
[5] = target: T1, scHLA-B27-mmH (engineered HLA-B*27 …); assay: SPR (Biacore), mAb captured, 25 C, HBST pH 7.4
[6] = target: T1, scHLA-B27-mmH (engineered HLA-B*27 …); assay: SPR (Biacore), mAb captured, 37 C, HBST pH 7.4

Row | Binder | Kd [1] | Kd [2] | Kd [3] | t1/2 [3] | Kd [4] | t1/2 [4] | Kd [5] | t1/2 [5] | Kd [6] | t1/2 [6] | binding result [5]
1 | B1 | 2.13 nM | 53.4 nM | 2.13 nM | 16 min | 53.4 nM | 5 min | 5.18 nM | 6 min | 8.7 nM | 3 min | 
2 | B2 | 52.1 nM | 488 nM | 52.1 nM | 2 min | 488 nM | 1 min | 58 nM | 2 min | 170 nM | 2 min | 
3 | B3 |  |  |  |  |  |  |  |  |  |  | no binding
4 | B4 |  |  |  |  |  |  | 9.97 nM | 33 min |  |  | 
5 | B5 |  |  |  |  |  |  | 21.3 nM | 7 min | 28 nM | 4 min | 
6 | B6 | 30.5 nM | 95 nM | 30.5 nM | 4 min | 95 nM | 2 min | 10 nM | 5 min | 7.63 nM | 4 min | 
7 | B7 | 0.457 nM | 0.717 nM | 0.457 nM | 52 min | 0.717 nM | 36 min | 0.452 nM | 21 min | 0.837 nM | 9 min | 
8 | B8 | 0.37 nM | 0.641 nM | 0.37 nM | 69 min | 0.641 nM | 44 min | 0.604 nM | 20 min | 1.13 nM | 8 min | 
9 | B9 | 0.491 nM | 0.855 nM | 0.491 nM | 47 min | 0.855 nM | 31 min | 0.521 nM | 18 min | 1.02 nM | 7 min | 
10 | B10 | 0.434 nM |  | 0.434 nM | 65 min |  | 43 min | 0.895 nM | 19 min | 1.18 nM | 8 min | 
11 | B11 | 0.76 nM | 0.739 nM | 0.76 nM | 348 min | 0.739 nM | 301 min | 2.08 nM | 96 min | 3.91 nM | 37 min | 
12 | B12 | 2.71 nM | 2.74 nM | 2.71 nM | 151 min | 2.74 nM | 135 min | 6 nM | 77 min | 20.4 nM | 17 min | 
13 | B13 | 1.25 nM | 7.7 nM | 1.25 nM | 16 min | 7.7 nM | 6 min | 1.47 nM | 6 min | 1.96 nM | 4 min | 
